Sequences and labels used below:
T1: His-LRS-(759-1176) (Homo sapiens (Human), UniProt Q9P2J5 759-1176)
T1 construct: not shown: His tag from pET16a vector
T1 sequence: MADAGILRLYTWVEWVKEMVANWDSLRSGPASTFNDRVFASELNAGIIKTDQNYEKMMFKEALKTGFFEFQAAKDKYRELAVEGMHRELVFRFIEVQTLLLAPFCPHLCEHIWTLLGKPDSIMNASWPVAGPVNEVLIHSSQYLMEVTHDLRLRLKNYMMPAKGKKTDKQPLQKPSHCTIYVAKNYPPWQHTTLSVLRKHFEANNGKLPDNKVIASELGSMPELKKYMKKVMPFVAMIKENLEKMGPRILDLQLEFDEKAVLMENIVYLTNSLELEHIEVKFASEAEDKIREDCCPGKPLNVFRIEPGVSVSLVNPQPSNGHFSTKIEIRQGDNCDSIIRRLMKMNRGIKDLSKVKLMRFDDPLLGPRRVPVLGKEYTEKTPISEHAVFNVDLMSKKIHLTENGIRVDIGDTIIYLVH

T2: myc-tagged methionyl-tRNA synthetase (MRS) (UniProt P56192 1-900)
T2 construct: also called myc-tagged MRS; not shown: myc tag
T2 sequence (looked up): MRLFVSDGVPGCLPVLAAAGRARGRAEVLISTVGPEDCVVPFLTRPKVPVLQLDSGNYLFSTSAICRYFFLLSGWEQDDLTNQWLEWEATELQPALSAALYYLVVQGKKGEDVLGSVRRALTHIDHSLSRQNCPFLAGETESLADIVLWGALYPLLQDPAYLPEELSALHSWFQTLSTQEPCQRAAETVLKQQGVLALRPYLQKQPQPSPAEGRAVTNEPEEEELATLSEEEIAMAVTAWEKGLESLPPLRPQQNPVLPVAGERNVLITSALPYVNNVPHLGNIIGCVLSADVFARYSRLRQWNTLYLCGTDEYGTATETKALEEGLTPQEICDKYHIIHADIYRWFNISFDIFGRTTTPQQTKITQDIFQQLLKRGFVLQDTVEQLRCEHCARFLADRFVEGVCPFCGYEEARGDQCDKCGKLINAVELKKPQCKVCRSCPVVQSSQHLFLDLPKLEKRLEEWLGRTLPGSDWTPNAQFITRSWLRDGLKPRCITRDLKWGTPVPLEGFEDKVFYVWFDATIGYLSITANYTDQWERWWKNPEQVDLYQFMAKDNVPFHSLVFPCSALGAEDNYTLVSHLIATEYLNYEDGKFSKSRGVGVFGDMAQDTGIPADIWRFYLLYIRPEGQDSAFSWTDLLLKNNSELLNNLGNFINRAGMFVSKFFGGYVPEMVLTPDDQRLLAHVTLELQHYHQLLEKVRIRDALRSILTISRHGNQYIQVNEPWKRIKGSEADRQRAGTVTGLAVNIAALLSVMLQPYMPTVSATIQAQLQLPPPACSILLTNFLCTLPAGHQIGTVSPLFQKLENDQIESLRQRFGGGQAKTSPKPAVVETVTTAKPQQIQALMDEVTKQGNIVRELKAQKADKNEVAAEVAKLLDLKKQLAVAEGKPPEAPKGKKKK

T3: myc-tagged isoleucyl-tRNA synthetase (IRS) (UniProt P41252 1-1262)
T3 construct: also called myc-tagged IRS; not shown: myc tag
T3 sequence (looked up): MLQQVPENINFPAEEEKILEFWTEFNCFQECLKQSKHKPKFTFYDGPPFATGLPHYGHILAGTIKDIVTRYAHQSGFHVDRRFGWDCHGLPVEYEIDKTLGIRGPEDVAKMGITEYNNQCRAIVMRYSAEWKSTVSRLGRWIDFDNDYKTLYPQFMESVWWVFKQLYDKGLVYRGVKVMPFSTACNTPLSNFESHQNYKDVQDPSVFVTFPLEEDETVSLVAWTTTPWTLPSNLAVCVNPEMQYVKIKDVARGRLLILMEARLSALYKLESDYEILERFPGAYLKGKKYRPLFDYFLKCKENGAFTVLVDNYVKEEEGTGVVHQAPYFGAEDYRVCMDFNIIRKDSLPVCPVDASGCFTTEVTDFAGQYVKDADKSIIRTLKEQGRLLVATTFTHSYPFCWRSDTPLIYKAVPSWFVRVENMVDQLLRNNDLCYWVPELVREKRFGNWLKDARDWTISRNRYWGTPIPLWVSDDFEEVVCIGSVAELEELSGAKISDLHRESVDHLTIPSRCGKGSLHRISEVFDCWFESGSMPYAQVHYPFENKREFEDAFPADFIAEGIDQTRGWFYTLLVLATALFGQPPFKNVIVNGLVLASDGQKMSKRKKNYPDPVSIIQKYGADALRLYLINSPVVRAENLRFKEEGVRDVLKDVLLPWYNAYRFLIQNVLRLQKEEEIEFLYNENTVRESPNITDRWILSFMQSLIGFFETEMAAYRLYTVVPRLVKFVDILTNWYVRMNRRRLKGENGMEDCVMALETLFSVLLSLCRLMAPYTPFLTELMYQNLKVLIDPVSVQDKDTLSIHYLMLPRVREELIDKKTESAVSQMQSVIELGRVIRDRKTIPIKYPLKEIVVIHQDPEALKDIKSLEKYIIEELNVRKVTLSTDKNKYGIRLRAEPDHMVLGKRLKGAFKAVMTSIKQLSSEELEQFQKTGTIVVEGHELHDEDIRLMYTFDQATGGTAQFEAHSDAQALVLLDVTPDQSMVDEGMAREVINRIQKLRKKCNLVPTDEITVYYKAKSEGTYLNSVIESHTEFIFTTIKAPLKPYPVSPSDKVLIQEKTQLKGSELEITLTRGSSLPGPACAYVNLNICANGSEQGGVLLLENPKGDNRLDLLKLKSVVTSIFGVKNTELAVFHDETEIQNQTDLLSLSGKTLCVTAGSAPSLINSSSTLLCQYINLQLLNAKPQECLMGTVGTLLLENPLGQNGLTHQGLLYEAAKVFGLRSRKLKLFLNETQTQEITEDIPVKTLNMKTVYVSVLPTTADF

B1: endogenous RagD of 293T cells (enzyme, UniProt Q9NQL2 1-400, looked up)
chain: MSQVLGKPQPQDEDDAEEEEEEDELVGLADYGDGPDSSDADPDSGTEEGVLDFSDPFSTEVKPRILLMGLRRSGKSSIQKVVFHKMSPNETLFLESTNKICREDVSNSSFVNFQIWDFPGQIDFFDPTFDYEMIFRGTGALIFVIDSQDDYMEALARLHLTVTRAYKVNTDINFEVFIHKVDGLSDDHKIETQRDIHQRANDDLADAGLEKIHLSFYLTSIYDHSIFEAFSKVVQKLIPQLPTLENLLNIFISNSGIEKAFLFDVVSKIYIATDSTPVDMQTYELCCDMIDVVIDISCIYGLKEDGAGTPYDKESTAIIKLNNTTVLYLKEVTKFLALVCFVREESFERKGLIDYNFHCFRKAIHEVFEVRMKVVKSRKVQNRLQKKKRATPNGTPRVLL
notes: Endogenous protein in 293T cell lysates, detected with anti-RagD antibody
B2: GST-RagD (RagD-(1-400)) (enzyme, UniProt Q9NQL2 1-400, looked up)
chain: B1 chain
notes: range 1-400; Expressed in E. coli BL21, purified on GSH agarose; also called peptide spanning aa 1-400 of RagD; RagD protein; not shown: glutathione S-transferase (GST) tag from pGEX4T3 vector (GE healthcare)
B3: HA-tagged RagD (enzyme, UniProt Q9NQL2 1-400, looked up)
chain: B1 chain
notes: Expressed in 293T cells, used as cell lysate; also called HA-RagD; not shown: HA tag
B4: GST-LRS fragment 971-1176 (enzyme)
chain: VIASELGSMPELKKYMKKVMPFVAMIKENLEKMGPRILDLQLEFDEKAVLMENIVYLTNSLELEHIEVKFASEAEDKIREDCCPGKPLNVFRIEPGVSVSLVNPQPSNGHFSTKIEIRQGDNCDSIIRRLMKMNRGIKDLSKVKLMRFDDPLLGPRRVPVLGKEYTEKTPISEHAVFNVDLMSKKIHLTENGIRVDIGDTIIYLVH
notes: not shown: glutathione S-transferase (GST) fusion tag

Experiment [1] concerns the target T4, endogenous LRS of 293T cells (Homo sapiens (Human), UniProt Q9P2J5 1-1176).
T4 construct: Endogenous protein in HEK293T cell lysates, detected with anti-LRS antibody
Briefly: immunoprecipitation of 293T lysates with anti-Raptor antibody, anti-LRS and anti-RagD blots (FIG. 4a). As to the method:
293T cells were starved for amino acids for 1 hour and re-stimulated with amino acids for 5 min.

Experiment [2] addresses T1, His-LRS-(759-1176). Briefly: ELISA competition: His-LRS-(759-1176) added to GST-RagD on plate-coated His-LRS-(1-1176) (FIG. 13b). Background: ELISA stands for enzyme-linked immunosorbent assay.
Experiment [3] concerns the target T5, His-LRS-(1-1176) (Homo sapiens (Human), UniProt Q9P2J5 1-1176).
T5 construct: Expressed in E. coli BL21(DE3), purified on Ni-chelating agarose, coated on the ELISA plate; not shown: His tag from pET16a vector
Nature of the experiment: ELISA: plate coated with LRS-(1-1176) (500 ng/ml), GST-RagD detected with anti-GST antibody (FIG. 13a).

In experiment [4] the target is T2, myc-tagged methionyl-tRNA synthetase …. Briefly: co-immunoprecipitation with anti-HA antibody, anti-myc blot (FIG. 3c). As to the method:
(§1) The co-precipitated myc-tagged protein was determined by immunoblotting with anti-myc antibodies.

The target in experiment [5] is T3, myc-tagged isoleucyl-tRNA synthetase …. The description is as above. On the procedure: as §1
Experiment [6] deals with T6, myc-tagged glutamyl-prolyl-tRNA synthetase (EPRS) (UniProt P07814 1-1512).
T6 construct: also called myc-tagged EPRS; not shown: myc tag
The description is as above. As to the method:
as §1

The target in experiment [7] is B3. Briefly: in vitro GST pull-down of HA-RagD lysate, anti-HA blot (FIG. 3h). On the procedure:
Binding assay was conducted in 25 mM Tris-HCl buffer (pH7.4) containing 10 mM NaCl, 1 mM MgCl₂, 1 mM EDTA, 0.5 mM EGTA, and 0.5% Triton X-100.

T6 sequence (P07814 whole entry): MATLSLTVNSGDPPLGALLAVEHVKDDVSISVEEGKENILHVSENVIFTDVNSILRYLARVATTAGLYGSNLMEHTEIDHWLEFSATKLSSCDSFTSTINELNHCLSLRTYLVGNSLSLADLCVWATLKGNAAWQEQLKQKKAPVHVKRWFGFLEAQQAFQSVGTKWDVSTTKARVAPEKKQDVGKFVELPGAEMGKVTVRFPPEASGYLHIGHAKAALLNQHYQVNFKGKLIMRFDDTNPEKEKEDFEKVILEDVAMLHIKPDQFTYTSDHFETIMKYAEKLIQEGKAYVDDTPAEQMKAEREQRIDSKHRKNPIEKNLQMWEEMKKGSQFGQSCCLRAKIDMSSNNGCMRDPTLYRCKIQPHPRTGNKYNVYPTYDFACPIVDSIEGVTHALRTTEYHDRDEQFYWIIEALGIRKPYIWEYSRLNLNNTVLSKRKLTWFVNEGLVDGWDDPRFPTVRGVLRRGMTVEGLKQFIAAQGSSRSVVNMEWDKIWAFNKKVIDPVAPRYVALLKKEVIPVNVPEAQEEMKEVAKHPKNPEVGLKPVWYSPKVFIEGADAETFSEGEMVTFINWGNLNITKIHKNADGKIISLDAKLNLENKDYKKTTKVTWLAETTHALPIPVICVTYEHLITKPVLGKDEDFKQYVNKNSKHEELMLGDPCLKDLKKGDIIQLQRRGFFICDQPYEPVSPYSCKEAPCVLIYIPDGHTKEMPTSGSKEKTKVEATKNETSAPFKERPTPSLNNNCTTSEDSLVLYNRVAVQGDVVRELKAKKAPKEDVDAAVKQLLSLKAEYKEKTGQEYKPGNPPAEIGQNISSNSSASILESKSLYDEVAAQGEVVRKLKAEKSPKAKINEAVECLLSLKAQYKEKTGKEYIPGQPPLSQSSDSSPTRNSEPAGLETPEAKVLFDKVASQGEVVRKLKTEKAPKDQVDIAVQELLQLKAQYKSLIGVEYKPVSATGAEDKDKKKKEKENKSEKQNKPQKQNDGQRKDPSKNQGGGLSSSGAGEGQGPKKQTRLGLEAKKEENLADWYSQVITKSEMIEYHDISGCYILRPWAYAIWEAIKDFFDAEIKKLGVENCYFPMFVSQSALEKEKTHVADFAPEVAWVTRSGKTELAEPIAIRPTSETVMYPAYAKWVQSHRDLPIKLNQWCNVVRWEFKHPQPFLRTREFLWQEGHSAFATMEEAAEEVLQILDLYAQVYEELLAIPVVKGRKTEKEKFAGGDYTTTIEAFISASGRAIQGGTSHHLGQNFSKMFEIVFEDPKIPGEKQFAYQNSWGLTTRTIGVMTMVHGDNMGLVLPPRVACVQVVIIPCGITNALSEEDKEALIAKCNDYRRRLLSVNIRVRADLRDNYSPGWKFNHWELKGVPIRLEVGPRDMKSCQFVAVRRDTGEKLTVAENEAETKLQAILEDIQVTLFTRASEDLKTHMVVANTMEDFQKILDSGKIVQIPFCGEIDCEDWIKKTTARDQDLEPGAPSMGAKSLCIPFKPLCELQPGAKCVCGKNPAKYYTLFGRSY

Regarding B1, the binding result in experiment [1] is “binds”.
As to B2, the binding result in experiment [2] and in experiment [3] was “binds” each time.
Regarding B3, the binding result in experiment [4], in experiment [5] and in experiment [6] was “no binding” in each case.
Regarding B4, in experiment [7], the binding result is “no binding”.

These data come from patent publication US20140249045A1 (MEDICINAL BIOCONVERGENCE RESEARCH CENTER, published 2014).
